Data set [1] concerns substrate DNA (template-primer). Briefly: DNA polymerase activity on different forms of substrate DNA (template-primer). In kind it is biochemical. The procedure:
The DNA polymerase activity was assayed using calf thymus DNA (manufactured by Worthington) activated by DNase I treatment (activated DNA) as a substrate. DNA activation and assay of DNA polymerase activity were carried out by the method described in DNA Polymerase from Escherichia coli, 263-276 (authored by C. C. Richardson), published by Harper & Row, edited by D. R. Davis.
An assay of enzyme activity was carried out by the following method. Specifically, 50 μl of a reaction solution [20 mM Tris-HCl (pH 7.7), 15 mM MgCl2, 2 mM 2-mercaptoethanol, 0.2 mg/ml activated DNA, 40 μM each of dATP, dCTP, dGTP and dTTP, 60 nM [^3H]-dTTP (manufactured by Amersham)], containing a sample for assaying its activity, was prepared and reacted at 75° C. for 15 minutes. A 40 μl portion of this reaction mixture was then spotted onto a DE paper (manufactured by Whatman) and washed with 5% Na2HPO4 five times. The remaining radioactivity on the DE paper was assayed using a liquid scintillation counter. The amount of enzyme which incorporated 10 nmol of [^3H]-dTMP per 30 minutes into the substrate DNA, assayed by the above-described enzyme activity assay method, was defined as one unit of the enzyme.
Next, in order to compare the selectivity of the DNA polymerase of the present invention for different forms of substrate DNA, the following template-primer was examined. Aside from the activated DNA used for conventional assay of the activity, those prepared as substrates include a thermal-denatured DNA prepared by treating the activated DNA at 85° C. for 5 minutes; M13-HT Primer prepared by annealing a 45-base synthetic deoxyribooligonucleotide of the sequence as shown by SEQ ID NO:6 in Sequence Listing as a primer to the M13 phage single stranded DNA (M13mp18 ssDNA, manufactured by Takara Shuzo Co., Ltd.); M13-RNA Primer prepared by annealing a 17-base synthetic ribooligonucleotide of the sequence as shown by SEQ ID NO:7 in Sequence Listing as a primer to the same M13 phage single stranded DNA; Poly dA-Oligo dT prepared by mixing polydeoxyadenosine (Poly dA, manufactured by Pharmacia) and oligodeoxythymidine (Oligo dT, manufactured by Pharmacia) in a 20:1 molar ratio; and Poly A-Oligo dT prepared by mixing polyadenosine (Poly A, manufactured by Pharmacia) and oligodeoxythymidine in a 20:1 molar ratio.
The DNA polymerase activity was assayed using these substrates in place of the activated DNA. The relative activity of each substrate when the activity obtained in the case of using an activated DNA as a substrate is defined as 100 is shown in Table 1. For comparison, the Pfu DNA polymerase and the Taq DNA polymerase derived from Thermus aquaticus (TaKaRa Taq, manufactured by Takara Shuzo Co., Ltd.) were also examined in the same manner.

Data set [2] concerns gapped duplex plasmid (pUC118 vector). Briefly: Accuracy of DNA synthesis reaction (white colony formation). Particulars: 0.5 units DNA polymerase, 70° C. for 10 minutes. In kind it is biochemical. The procedure: The accuracy of DNA synthesis reaction by DNA polymerases was examined using a pUC118 vector (manufactured by Takara Shuzo Co., Ltd.), partially made single stranded (gapped duplex plasmid, as a template. The single stranded pUC118 vector was prepared by the method described in Molecular Cloning: A Laboratory Manual, 2nd ed., 4.44-4.48, published by Cold Spring Harbor Laboratory in 1989, edited by T. Maniatis et al., using a helper phage M13KO7 (manufactured by Takara Shuzo Co., Ltd.) with Escherichia coli MV1184 (manufactured by Takara Shuzo Co., Ltd.) as a host. The double stranded DNA was prepared by digesting the pUC118 vector with PvuII (manufactured by Takara Shuzo Co., Ltd.), subjecting the digested vector to agarose gel electrophoresis, and recovering a DNA fragment of about 2.8 kbp.
One microgram of the above single stranded DNA and 2 μg of the double stranded DNA were mixed to make 180 μl of a mixture with sterile distilled water, and the solution was then incubated at 70° C. for 10 minutes. Thereafter, twenty microliters of 20×SSC was added to the resulting mixture, and the mixture was further kept standing at 60° C. for 10 minutes. The DNA was recovered by subjecting to ethanol precipitation. […] The white or blue colonies formed on the plate were counted, and the formation rate of white colonies which were resulted from a DNA synthesis error was calculated.

[3] abbreviates: substrate M13-HT primer, activated DNA = 100.
The mark [4] stands for this setting: substrate M13-RNA primer, activated DNA = 100.
[5] abbreviates: substrate activated DNA (defined as 100).
[6] abbreviates: substrate poly A-Oligo dT, activated DNA = 100.
[7] abbreviates: substrate poly dA-Oligo dT, activated DNA = 100.
Setting [8] is: substrate thermal-denatured DNA, activated DNA = 100.

On to “DNA Polymerase of the Present Invention: complex of first (ORF3, SEQ ID NO:2) and second (ORF4, SEQ ID NO:4) DNA polymerase-constituting proteins from Pyrococcus furiosus”, for which the “Relative Activity” value was 170 in data set [1] (setting [3]); 52 in data set [1] (setting [4]); 100 in data set [1] (setting [5]); 0.085 in data set [1] (setting [6]); 94 in data set [1] (setting [7]); 340 in data set [1] (setting [8]). Besides, the “white colony formation rate (DNA synthesis error)” value in data set [2] turned out to be 1.61%.
As for “Taq DNA Polymerase: Taq DNA polymerase derived from Thermus aquaticus (TaKaRa Taq, manufactured by Takara Shuzo Co., Ltd.) [reference compound]”, the “Relative Activity” value was found to be 90 in data set [1] (setting [3]); 38 in data set [1] (setting [4]); 100 in data set [1] (setting [5]); 0.063 in data set [1] (setting [6]); 290 in data set [1] (setting [7]); 130 in data set [1] (setting [8]). Further, in data set [2], the “white colony formation rate (DNA synthesis error)” value was 3.18%.

These data come from patent US6395526B1, “DNA polymerase” (Takara Shuzo Co., Ltd., priority 1995, dated 2002).
